We go through two proteins from article PMC4154877, “Mouse, but Not Human, ApoB-100 Lipoprotein Cholesterol Is a Potent Innate Inhibitor of Streptococcus pneumoniae Pneumolysin” (PLoS Pathogens, 2014).

Series [1] deals with the molecule itself. Description: FRET or BRET. For orientation: BRET reads energy transfer from a luciferase to a nearby fluorophore.
Series [2] concerns the molecule itself. The series can be described thus: SDS-agarose gel electrophoresis of SDS-resistant oligomer, immunoblot; PLY^PPL incubated with mouse or human serum diluted 1:2 to 1:40 in HEPES buffered saline, 37°C, 20 minutes; SDS-AGE (1.5%), blot probed with rabbit anti-PLY serum.

Changes are numbered by the printed parent chain. In names and notes the source's numbering stands.

B1: pre-pore locked pneumolysin with Cys-117, labelled with Alexa Fluor 488 or 568 (PLY^PPL D117C) (natural protein, Streptococcus pneumoniae, UniProt P0C2J9 1-471, looked up)
chain: MANKAVNDFILAMNYDKKKLLTHQCESIENRFIKEGNQLPDEFVVIERKKRSLSTNTSDISVTATNDSRLYPGALLVVDETLLENNPTLLAVDRAPMTYSIDLPGLASSDSFLQVECPSNSSVRGAVNDLLAKWHQDYGQVNNVPARMQYEKITAHSMCQLKVKFGSDFEKTGNSLDIDFNSVHSGEKQIQIVNFKQIYYTVSVDAVKNPGDVFQDTVTVEDLKQRGISAERPLVYISSVAYGRQVYLKLETTSKSDEVEAAFEALIKGVKVAPQTEWKQILDNTEVKAVILGGDPSSGARVVTGKVDMVEDLIQEGSRFTADHPGLPISYTTSFLRDNVVATFQNSTDYVETKVTAYRNGDLLLDHSGAYVAQYYITWNELSYDHQGKEVLTPKAWDRNGQDLTAHFTTSIPLKGNVRNLSVKIREATGLAWEWWRTVYEKTDLPLVRKRTISIWGTTLYPQVEDKVEND
modifications: Alexa Fluor 488 (donor) or Alexa Fluor 568 (acceptor) on the sulfhydryl of Cys-117; disulfide between cysteine-substituted Gly-25 and Glu-159
notes: Donor-labelled protein was mixed with acceptor-labelled or unlabelled (U) protein in the FRET assay; also called D labeled PLY^PPL; A labeled PLY^PPL; source: E. coli Tuner cells, purified
With B1, the binding result in series [1] is recorded as “binds”.

B2: pre-pore locked pneumolysin (PLY^PPL) (natural protein)
chain: B1 chain with C117D
modifications: disulfide between cysteine-substituted Gly-25 and Glu-159
notes: pneumolysin (PLY) of Streptococcus pneumoniae, codon-optimised gene in pET-15b (NdeI/BamHI); cysteine-less background (Cys-428 to Ala) with a disulfide between Cys-25 and Cys-159; also called prepore locked version of PLY; source: E. coli Tuner cells, purified
Regarding B2, in series [2], the binding result is listed as “binds”.
